Measured values from article PMC3025952, “Characterization of a core fragment of the rhesus monkey TRIM5α protein” (BMC Biochemistry, 2011).
Positions count from the first letter of the chain named. In names and notes the source's numbering stands.

B1: BCCL2 protein, wild-type (B-box 2, coiled coil and linker 2 region of rhesus monkey TRIM5α), His6-tagged, from E. coli (domain or fragment)
chain: GSGLVPRGSASMSDSEVNQEAKPEVKLSPEEGQKVDHCARHGEKLLLFCQEDSKVICWLCERSQEHRGHHTFLMEEVAQEYHVKLQTALEMLRQKQQEAEKLEADIREEKASWKIQIDYDKTNVSADFEQLREILDWEESNELQNLEKEEEDILKSLTKSETEMVQQTQYMRELISELEHRLQGSMMDLLQGVDGIIKRIENMTLKKPKTFHKNQRRVFRAPDLKGMLDMFRELTDA
notes: vector-derived spacer between the His6 tag and E83 of TRIM5αrh; Predicted molecular weight with tag and spacer 29.026 kD; also called wild-type (wt); core fragment of TRIM5αrh; source: E. coli BL21(DE3)pLysS, purified (Ni-NTA, SEC, anion exchange); not shown: His6, N-terminal, kept
B2: BCCL2 LLER protein (L105E, L106E, E120R, R121E), His6-tagged, from E. coli (domain or fragment, rhesus monkey)
chain: B1 chain with L46E, L47E, E61R, R62E
notes: vector-derived spacer between the His6 tag and E83 of TRIM5αrh; also called LLER variant; source: E. coli BL21(DE3)pLysS, purified (Ni-NTA, anion exchange, SEC); not shown: His6, N-terminal, kept

Key:
[1] = molecular target: the molecule itself; assay: SEC; Superdex 200 (10/30) column calibrated with globular molecular-weight markers, PBS; for LLER also with 25 μM ZnCl2 and DTT (profile not significantly affected)
[2] = molecular target: the molecule itself; assay: single-particle cryo-electron microscopy; peak 1 and peak 2 gel-filtration fractions of LLER; peak 2 also incubated with an anti-His6 antibody to count the tags in a particle
[3] = molecular target: the molecule itself; assay: SEC-MALS; SEC-LS: about 300 μg LLER on Superose 6 HR 10/30 with in-line Dawn EOS light scattering, refractometer and UV detector

| Protein | binding result [1] | stoichiometry N [2] | stoichiometry N [3] |
| --- | --- | --- | --- |
| B1 | binds | – | – |
| B2 | – | ≥ 2 | 2 |
